Here are results for two molecules from patent US12480043B2, “Red-light-mediated nucleic acid anchoring-type fluorescent probe, and preparation method therefor and use thereof” (SOOCHOW UNIVERSITY, priority 2020, dated 2025).

A short description of series [1]: UV visible near-infrared and fluorescence spectra in aqueous solution. It counts as physicochemical. The note with it: 10 μM in ultrapure water.
Series [2] in a line: TEM and particle size of probe in aqueous solution. Format: physicochemical. The note with it: TEM.
For series [3] the following is noted: 10 μM.
Series [4] has as its system 4T1 mice breast cancer tumor. The method, then: The control group probe CR and the experimental group probe f-CR were treated with PBS to a concentration of […] 200 μL. MB (PBS, 0.1) was injected into the mouse tumor 0.5 hours in advance by intratumor injection, followed by tail vein injection of CR or f-CR.
For another series, the system named is 4T1 cells. In words: Cytotoxicity of probes co-incubated with MB and cells.

In series [1], `CC[N+]1=C(/C=C/C=C/C=C/C=C2\N(CCCCCC(=O)NCCCCC3NC(=O)C(Cc4ccccc4)NC(=O)C(CC(=O)O)NC(=O)CNC(=O)C(CCCNC(=N)N)NC3=O)c3ccc(S(=O)(=O)O)cc3C2(C)C)C(C)(C)c2cc(S(=O)(=O)O)ccc21` (stereo not drawn) [CR] had a maximum absorption of 747 nm and a maximum emission of 789 nm. The assembly or nanostructure result in series [2] is reported as “no assembly or nanostructure was found”. The “solubility in ultrapure water” value in series [3] is recorded as “completely soluble”.
Turning to `CC[N+]1=C(/C=C/C=C/C=C/C=C2\N(CCCCCC(=O)NC(CCCCNC(=O)CCc3ccco3)C(=O)NCCCCC3NC(=O)C(Cc4ccccc4)NC(=O)C(CC(=O)O)NC(=O)CNC(=O)C(CCCNC(=N)N)NC3=O)c3ccc(S(=O)(=O)O)cc3C2(C)C)C(C)(C)c2cc(S(=O)(=O)O)ccc21` (stereo not drawn) [f-CR], the “enrichment in the tumor” value in series [4] (12 hours after probe injection, f-CR+MB+660 nm, tumor sections and organ homogenates) was “much higher than that of other groups”. Also, in series [4] (MB intratumor 0.5 hours in advance, probe 100 Mm 200 μL tail vein, 660 nm 50 mW/cm^2 3 minutes after 1 hour), the “retention time in vivo (tumor, IVIS)” value is “much longer than that of other groups”. In series [3], the “solubility in ultrapure water” value is recorded as “completely soluble”. Moreover, the toxicity without illumination result with 4T1 cells (100, 50, 20, 10, 1, 0.1 μM + MB 0.1 μM, 4T1 cells, 12 hours) is “neither CR nor f-CR showed significant toxicity”. Further, the cytotoxicity after illumination entry with 4T1 cells (probe + MB 0.1 μM, 4T1 cells 12 hours, 660 nm 50 mW/cm 2 3 minutes, further cultured 48 hours) is “exhibited certain cytotoxicity”.
